We go through two molecules from patent US20260139057A1 (University of California, published 2026).

A word on the Kd: it is a measure of binding affinity in units of concentration.

Experiment [1] addresses T1, recombinant human integrin αvβ8 ectodomain (human, UniProt P06756 31-992; P26012 43-681).
T1 construct: Made in ExpiCHO cells from plasmids encoding the entire ectodomains; also called avb8; Human Integrin alpha V beta 8 (αvβ8) protein
As to the kind of experiment: KinExA, solution-based affinity; antigen form not stated. The source says:
Samples with serial dilutions are drawn over solid-phase beads coupled with one binding partner to capture the complimentary binding molecule, which is detected by flow of fluorophore-labeled antibody solution binding to a separate epitope on the same molecule being measured. Signals are used to calculate free concentration in solution after equilibrium is reached (i.e. to determine binding affinity KD), or under pre-equilibrium conditions over time (i.e. to determine binding kinetics). Free antigen remaining in solution at equilibrium for varying initial antibody concentrations in constant initial concentration of antigen as determined by the KinExA software, based on optimized least-squares fitting to a reversible binding equation.
A Kinetic Exclusion Assay (KinExA®, Sapidyne Instruments, Inc., Boise, ID) was used to measure the binding affinity of H4C8 (Seq ID NOs. 34, 35) produced with the CH1-CH3 domain from IgG4 (Seq ID NO: 59). […] Samples with serial dilutions are drawn over solid-phase beads coupled with one binding partner to capture the complimentary binding molecule, which is detected by flow of fluorophore-labeled antibody solution binding to a separate epitope on the same molecule being measured. […]

Experiment [2] has as its target T1, recombinant human integrin αvβ8 …. The experiment in a line: cell-based or functional assay.
For experiment [3], the target named is T2, human integrin αvβ8 on transfected cells (CHO cells stably transfected; HEK 293 cells stably expressing αvβ8) (human, UniProt P06756 31-1048; P26012 43-769).
T2 construct: whole, on cells; also called CHO αvβ8 cells; αvβ8 expressing CHO cells
T2 sequence (P06756 31-1048, chain 1 of 2): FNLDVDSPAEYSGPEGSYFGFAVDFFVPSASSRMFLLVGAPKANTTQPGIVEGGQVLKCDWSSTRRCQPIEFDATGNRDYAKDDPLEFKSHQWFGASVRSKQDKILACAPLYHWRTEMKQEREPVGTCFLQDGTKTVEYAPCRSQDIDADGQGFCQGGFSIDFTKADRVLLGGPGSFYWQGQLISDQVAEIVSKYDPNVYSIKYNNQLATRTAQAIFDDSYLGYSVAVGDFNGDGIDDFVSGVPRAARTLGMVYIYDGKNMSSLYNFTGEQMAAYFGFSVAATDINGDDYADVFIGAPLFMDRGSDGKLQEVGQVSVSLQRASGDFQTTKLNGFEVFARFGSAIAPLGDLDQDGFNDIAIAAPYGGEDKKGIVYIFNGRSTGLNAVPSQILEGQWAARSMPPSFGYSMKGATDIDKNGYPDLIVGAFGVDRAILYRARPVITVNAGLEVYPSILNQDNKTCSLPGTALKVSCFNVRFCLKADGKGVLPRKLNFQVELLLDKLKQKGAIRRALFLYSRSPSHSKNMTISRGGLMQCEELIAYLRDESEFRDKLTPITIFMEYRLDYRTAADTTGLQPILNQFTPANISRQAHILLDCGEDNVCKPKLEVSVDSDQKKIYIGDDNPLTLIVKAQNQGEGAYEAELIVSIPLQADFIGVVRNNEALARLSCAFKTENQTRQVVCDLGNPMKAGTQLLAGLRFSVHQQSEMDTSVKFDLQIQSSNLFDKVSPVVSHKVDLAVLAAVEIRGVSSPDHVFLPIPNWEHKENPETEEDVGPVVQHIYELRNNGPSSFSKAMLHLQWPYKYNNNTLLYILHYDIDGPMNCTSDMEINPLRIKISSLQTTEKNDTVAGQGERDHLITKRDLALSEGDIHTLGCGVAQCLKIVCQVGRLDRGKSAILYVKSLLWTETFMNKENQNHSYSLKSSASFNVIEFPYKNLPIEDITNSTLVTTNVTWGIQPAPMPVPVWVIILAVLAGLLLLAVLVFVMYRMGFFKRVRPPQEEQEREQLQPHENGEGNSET
T2 sequence (P26012 43-769, chain 2 of 2): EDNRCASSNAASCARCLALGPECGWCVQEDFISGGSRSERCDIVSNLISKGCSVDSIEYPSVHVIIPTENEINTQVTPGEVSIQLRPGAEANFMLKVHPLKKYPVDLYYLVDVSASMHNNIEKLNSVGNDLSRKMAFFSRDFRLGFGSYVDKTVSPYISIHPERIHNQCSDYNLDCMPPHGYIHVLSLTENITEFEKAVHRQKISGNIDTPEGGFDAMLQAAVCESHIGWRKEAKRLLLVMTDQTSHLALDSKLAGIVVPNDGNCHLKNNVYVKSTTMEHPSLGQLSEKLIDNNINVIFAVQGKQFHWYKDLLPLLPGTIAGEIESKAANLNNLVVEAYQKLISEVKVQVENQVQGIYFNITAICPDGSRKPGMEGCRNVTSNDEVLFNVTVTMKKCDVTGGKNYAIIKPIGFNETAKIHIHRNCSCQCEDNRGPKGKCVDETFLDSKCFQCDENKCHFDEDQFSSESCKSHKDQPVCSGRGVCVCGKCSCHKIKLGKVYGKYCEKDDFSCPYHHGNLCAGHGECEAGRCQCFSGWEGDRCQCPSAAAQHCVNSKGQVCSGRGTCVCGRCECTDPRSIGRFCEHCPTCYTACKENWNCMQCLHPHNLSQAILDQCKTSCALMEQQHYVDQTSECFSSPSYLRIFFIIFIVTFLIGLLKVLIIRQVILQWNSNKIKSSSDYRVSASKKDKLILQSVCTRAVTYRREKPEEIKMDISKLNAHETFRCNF
The experiment in a line: flow cytometry on unfixed CHO cells expressing human αvβ8, antibody titrated, hyperbolic least-squares fit (m3 = KD); curves on D00025 [Cont.]. The protocol:
(§1) FIG. 17: Characterization of cell surface binding of humanized affinity optimized anti-αvβ8 antibodies. The cell surface binding affinities of H4C8, H4G9, H4C10, H4G8 compared to HuC6D4F12 expressed as IgG4 (S228P to prevent arm exchange, R409K and L445P to reduce aggregation and to promote stability). […] Cell surface affinity was determined using the least-squares fit model based on the hyperbolic equation y=m1+m2*m0/(m3+m0), where y=MFI at different avb8 concentrations; m0=αvβ8 concentration; m1=MFI with no αvβ8; m2=MFI at saturation; and m3=KD.
(§2) FIG. 18: Binding characteristics of H4C8 of formalin fixed αvβ8 compared to HuC6D4F12 or ADWA11 2.4 (from Pat no. US2020/0079855 A1). CHO αvβ8 expressing cells were fixed in 2% buffered formalin in PBS for 15 min at RT and then stained at the indicated concentrations as described in FIG. 17. The binding affinities to unfixed or formalin fixed cells is shown. Cell surface affinity was determined using the least-squares fit model based on the hyperbolic equation y=m1+m2*m0/(m3+m0), where y=MFI at different αvβ8 concentrations; m0=αvβ8 concentration; m1=MFI with no αvβ8; m2=MFI at saturation; and m3=KD.
On the technique in general: A flow cytometer gives signals particle by particle.

Experiment [4] concerns the target T1, recombinant human integrin αvβ8 …. The experiment in a line: cell-based or functional assay. This is another data set of the same source.
The target of experiment [5] is T3, integrin αvβ5 ectodomain (immobilized) (Homo sapiens (Human), UniProt P06756 31-992; P18084 24-719).
T3 construct: R&D Systems; copies: 1 + 1
T3 sequence (P06756 31-992 limits assumed, chain 1 of 2): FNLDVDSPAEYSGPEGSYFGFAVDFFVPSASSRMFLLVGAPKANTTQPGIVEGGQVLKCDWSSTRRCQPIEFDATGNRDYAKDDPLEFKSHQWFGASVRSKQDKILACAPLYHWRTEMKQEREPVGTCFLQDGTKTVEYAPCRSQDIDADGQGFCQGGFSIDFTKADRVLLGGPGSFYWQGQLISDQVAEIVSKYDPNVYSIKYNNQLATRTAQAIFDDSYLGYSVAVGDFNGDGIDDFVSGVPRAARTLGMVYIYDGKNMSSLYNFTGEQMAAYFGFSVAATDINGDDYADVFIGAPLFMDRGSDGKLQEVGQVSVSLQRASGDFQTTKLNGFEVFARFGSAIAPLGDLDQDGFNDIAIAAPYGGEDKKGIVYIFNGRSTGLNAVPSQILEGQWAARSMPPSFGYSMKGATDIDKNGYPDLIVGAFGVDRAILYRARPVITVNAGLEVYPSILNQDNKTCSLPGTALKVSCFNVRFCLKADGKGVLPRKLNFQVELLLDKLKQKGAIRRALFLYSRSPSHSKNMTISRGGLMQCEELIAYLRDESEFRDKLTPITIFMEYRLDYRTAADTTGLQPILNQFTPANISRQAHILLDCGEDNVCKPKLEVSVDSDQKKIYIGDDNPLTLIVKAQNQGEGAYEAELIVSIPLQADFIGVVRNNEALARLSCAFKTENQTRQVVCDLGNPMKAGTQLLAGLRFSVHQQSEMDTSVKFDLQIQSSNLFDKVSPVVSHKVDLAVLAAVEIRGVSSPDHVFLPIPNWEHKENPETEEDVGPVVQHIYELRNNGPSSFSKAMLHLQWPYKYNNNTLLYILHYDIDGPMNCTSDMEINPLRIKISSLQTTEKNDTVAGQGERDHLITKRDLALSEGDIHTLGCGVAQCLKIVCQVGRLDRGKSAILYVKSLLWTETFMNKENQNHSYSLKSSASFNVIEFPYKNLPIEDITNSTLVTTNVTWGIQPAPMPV
T3 sequence (P18084 24-719 limits assumed, chain 2 of 2): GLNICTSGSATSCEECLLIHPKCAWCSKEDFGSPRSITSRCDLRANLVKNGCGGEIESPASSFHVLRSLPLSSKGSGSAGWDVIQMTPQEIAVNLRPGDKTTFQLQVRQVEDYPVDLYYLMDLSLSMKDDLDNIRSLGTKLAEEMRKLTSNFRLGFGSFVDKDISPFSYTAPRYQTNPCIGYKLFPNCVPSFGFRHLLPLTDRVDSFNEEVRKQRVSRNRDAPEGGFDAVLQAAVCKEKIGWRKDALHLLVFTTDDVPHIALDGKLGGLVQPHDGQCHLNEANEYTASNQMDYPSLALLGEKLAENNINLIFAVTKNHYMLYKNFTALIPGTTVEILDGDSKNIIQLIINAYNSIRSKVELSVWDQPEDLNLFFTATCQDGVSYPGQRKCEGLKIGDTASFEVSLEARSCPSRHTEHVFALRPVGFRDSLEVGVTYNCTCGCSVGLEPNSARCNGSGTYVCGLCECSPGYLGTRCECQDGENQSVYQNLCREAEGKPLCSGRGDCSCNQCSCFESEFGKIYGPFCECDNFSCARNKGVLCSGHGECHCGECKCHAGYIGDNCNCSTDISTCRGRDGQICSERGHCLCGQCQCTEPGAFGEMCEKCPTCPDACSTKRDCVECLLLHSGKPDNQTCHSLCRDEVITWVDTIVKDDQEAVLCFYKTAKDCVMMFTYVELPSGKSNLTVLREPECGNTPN
As to the kind of experiment: ELISA on immobilized integrin ectodomains plated at 1 µg/ml, blocked with 1% BSA. The protocol:
(§3) FIG. 20: H4C8 maintains ability to block αvβ8-mediated TGF-β activation similar to HuC6D4F12 while maintaining specificity for αvβ8. A) Shown are inhibition curves for the indicated antibody abilities to block the ability of immobilized human αvβ8 to activate human L-TGF-β presented on the cell surface of TMLC by GARP. The assays were performed exactly as described in (Seed et al, Sci Immunol, 2021 and Campbell, et al, Cell 2019). The estimated ED50 values are shown. The antibodies used were HuC6D4 IgG2a, HuC6D4F12 IgG2a or H3.H12, H4C8 or H4C8m (murine VL Fr4) as human IgG4. B) The specificity of H4C8 was tested against immobilized ectodomains of αvβ1, αvβ3, αvβ5, αvβ6 and αvβ8 (either purchased from R &D systems or produced in ExpiCHO cells. All ectodomains were plated at 1 μg/ml and after washing, wells were blocked with 1% BSA. The indicated antibodies (either human IgG4 isotype or H4C8 IgG4).
A general note: ELISA stands for enzyme-linked immunosorbent assay.

The target of experiment [6] is T4, integrin αvβ1 ectodomain (immobilized) (Homo sapiens (Human), UniProt P06756 31-992; P05556 21-728).
T4 construct: R&D Systems; copies: 1 + 1
Described as above. The protocol: as §3

In experiment [7] the target is T5, integrin αvβ6 ectodomain (immobilized) (human, UniProt P06756 31-992; P18564 22-709).
T5 construct: extracellular domain; Bought from R&D Systems or made in ExpiCHO cells; also called immobilized human αvβ6
The description is as above. The protocol: as §3

Experiment [8] concerns the target T6, integrin αvβ3 ectodomain (immobilized) (Homo sapiens (Human), UniProt P06756 31-992; P05106 27-718).
T6 construct: Bought from R&D Systems or made in ExpiCHO cells; copies: 1 + 1
The experiment is described as above. As for the experimental part:
as §3

Experiment [9] concerns the target T2, human integrin αvβ8 on transfected …. As to the kind of experiment: flow cytometry on CHO cells expressing human αvβ8 fixed in 2% buffered formalin for 15 min, antibody titrated, hyperbolic least-squares fit (m3 = KD); curves on D00025 [Cont.]. The protocol:
as §1, §2

For experiment [10] the target is unchanged. The experiment in a line: flow cytometry, surface binding to CHO αvβ8 cells.

T1 sequence (P06756 31-992 limits assumed, chain 1 of 2): as the sequence (P06756 31-992 limits assumed, chain 1 of 2) above
T1 sequence (P26012 43-681 limits assumed, chain 2 of 2): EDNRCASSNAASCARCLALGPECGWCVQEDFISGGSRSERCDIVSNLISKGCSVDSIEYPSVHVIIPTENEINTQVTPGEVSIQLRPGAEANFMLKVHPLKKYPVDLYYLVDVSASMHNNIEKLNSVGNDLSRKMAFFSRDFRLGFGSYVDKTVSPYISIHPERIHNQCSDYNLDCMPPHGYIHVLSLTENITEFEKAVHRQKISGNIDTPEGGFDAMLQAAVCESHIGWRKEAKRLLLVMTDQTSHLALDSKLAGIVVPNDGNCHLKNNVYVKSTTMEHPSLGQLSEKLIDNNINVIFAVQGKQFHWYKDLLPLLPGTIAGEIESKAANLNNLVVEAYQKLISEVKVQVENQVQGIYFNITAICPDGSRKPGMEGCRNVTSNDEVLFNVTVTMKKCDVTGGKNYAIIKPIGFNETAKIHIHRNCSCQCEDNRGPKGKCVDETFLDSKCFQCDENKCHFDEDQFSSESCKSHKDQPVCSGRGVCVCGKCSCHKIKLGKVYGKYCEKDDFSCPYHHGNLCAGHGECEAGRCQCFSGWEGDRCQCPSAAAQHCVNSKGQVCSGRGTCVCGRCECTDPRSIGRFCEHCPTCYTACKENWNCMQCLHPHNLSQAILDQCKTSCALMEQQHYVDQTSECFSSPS
T6 sequence (P06756 31-992 limits assumed, chain 1 of 2): as the sequence (P06756 31-992 limits assumed, chain 1 of 2) above
T6 sequence (P05106 27-718 limits assumed, chain 2 of 2): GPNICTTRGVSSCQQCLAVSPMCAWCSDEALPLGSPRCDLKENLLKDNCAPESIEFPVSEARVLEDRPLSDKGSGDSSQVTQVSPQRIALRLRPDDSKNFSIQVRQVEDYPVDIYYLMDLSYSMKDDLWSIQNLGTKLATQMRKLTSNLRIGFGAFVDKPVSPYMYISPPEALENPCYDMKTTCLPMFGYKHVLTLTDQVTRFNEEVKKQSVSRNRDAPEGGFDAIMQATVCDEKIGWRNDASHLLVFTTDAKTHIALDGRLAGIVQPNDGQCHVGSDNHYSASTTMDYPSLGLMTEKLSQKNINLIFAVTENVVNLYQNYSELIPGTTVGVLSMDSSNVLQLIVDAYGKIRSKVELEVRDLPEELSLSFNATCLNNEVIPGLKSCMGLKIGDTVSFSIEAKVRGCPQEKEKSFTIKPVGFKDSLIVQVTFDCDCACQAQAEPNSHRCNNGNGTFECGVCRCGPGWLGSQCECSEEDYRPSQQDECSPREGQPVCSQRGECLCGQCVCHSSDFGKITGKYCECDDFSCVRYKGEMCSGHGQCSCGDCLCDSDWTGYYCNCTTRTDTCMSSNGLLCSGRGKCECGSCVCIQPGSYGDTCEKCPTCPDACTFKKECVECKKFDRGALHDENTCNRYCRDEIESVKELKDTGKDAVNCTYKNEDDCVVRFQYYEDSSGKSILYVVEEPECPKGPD

B1: H4C8 human IgG4 (antibody, V domains shown)
VH: QVQLVQSGAEVKKPGASVKVSCKVSGYTLTRQSMHWVRQAPGKGLEWMGRINTETGEPTYAQKFQGRVTMTQDTSTDTAYMELSSLRSEDTAVYFCAIFYYGRDTWGQGTTVTVSS
VL: EIVMTQSPATLSVSPGERVTLSCRSSQSLLHSRSRKNYLAWYQQKPGQAPRLLIYWASTRETGVPARFSGSGSGTEFTLTISSLQSEDFAVYYCKQSYNLLSFGQGTKVEIKR
notes: also called H4C8 IgG4
As for B1, the results for the Kd in experiment [1], in experiment [3] and in experiment [9] were 0.00707 nM, 2.6 nM and 3.6 nM, respectively. The “ED50 of the inhibition of αvβ8-mediated TGF-β activation (immobilized αvβ8, TMLC GARP/L-TGF-β reporter cells)” value in experiment [2] stood at 0.01 µg/mL. Besides, the “EC50 of inhibition of αvβ8-mediated TGF-β activation” value in [4] was 100 nM. For the same molecule, the binding result in experiment [5], in [6], in [7] and in experiment [8] was “no binding” throughout.

B2: Clone H1.1 as human IgG4 (antibody, V domains shown)
VH: QVQLVQSGAEVKKPGASVKVSCKVSGYTLTKLSMHWVRQAPGKGLEWMGRINTEDGEPIYAQKFQGRVTMTEDTSTDTAYMELSSLRSEDTAVYYCAIFYYGRDSWGQGTTLTVSS
VL: EIVMTQSPATLSVSPGERATLSCRASQSLLHSRTRKNYLAWYQQKPGQAPRLLIYWASTRATGIPARFSGSGSGTEFTLTISSLQSEDFAVYYCKQSYNLLSFGQGTVLEIKR
As for B2, the “fold lower affinity than F12 mouse IgG2a” value in [10] is 70 fold.
